Test results as given in patent US20140363844.

Experiments:
[1] = target: T1, Dianthus Precursor A[14,33]
T1 chain: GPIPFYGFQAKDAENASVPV

[2] = target: T2, Dianthus Precursor B[14,32]
T2 chain: GYKDCCVQAKDLENAAVPV

Presegetalin A1[14,20] = target: T3, Presegetalin A1[14,20]
T3 chain: GVPVWAF

Presegetalin A1[14,24] = target: T4, Presegetalin A1[14,24]
T4 chain: GVPVWAFQAKD

Presegetalin A1[14,28] = target: T5, Presegetalin A1[14,28]
T5 chain: GVPVWAFQAKDVENA

Presegetalin A1[14,30] = target: T6, Presegetalin A1[14,30]
T6 chain: GVPVWAFQAKDVENAPV

[3] = target: T7, Presegetalin A1[14,32] ins 16A17
T7 chain: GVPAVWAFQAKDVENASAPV

[4] = target: T8, Presegetalin A1[14,32] ins 16AAA17
T8 chain: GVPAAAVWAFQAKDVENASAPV

[5] = target: T9, Presegetalin A1[14,32]A19V
T9 chain: GVPVWVFQAKDVENASAPV

[6] = target: T10, Presegetalin A1[14,32]A22V
T10 chain: GVPVWAFQVKDVENASAPV

[7] = target: T11, Presegetalin A1[14,32]A28V
T11 chain: GVPVWAFQAKDVENVSAPV

[8] = target: T12, Presegetalin A1[14,32]A30V
T12 chain: GVPVWAFQAKDVENASVPV

[9] = target: T13, Presegetalin A1[14,32]D24A
T13 chain: GVPVWAFQAKAVENASAPV

[10] = target: T14, Presegetalin A1[14,32]F20A
T14 chain: GVPVWAAQAKDVENASAPV

[11] = target: T15, Presegetalin A1[14,32]K23A
T15 chain: GVPVWAFQAADVENASAPV

[12] = target: T16, Presegetalin A1[14,32]N27A
T16 chain: GVPVWAFQAKDVEAASAPV

[13] = target: T17, Presegetalin A1[14,32]P16p
T17 chain: GVPVWAFQAKDVENASAPV

[14] = target: T18, Presegetalin A1[14,32]P31A
T18 chain: GVPVWAFQAKDVENASAAV

[15] = target: T19, Presegetalin A1[14,32]Q21A
T19 chain: GVPVWAFAAKDVENASAPV

[16] = target: T20, Presegetalin A1[14,32]S29A
T20 chain: GVPVWAFQAKDVENAAAPV

[17] = target: T21, Presegetalin A1[14,32]V15A
T21 chain: GAPVWAFQAKDVENASAPV

[18] = target: T22, Presegetalin A1[14,32]V15v
T22 chain: GVPVWAFQAKDVENASAPV

[19] = target: T23, Presegetalin A1[14,32]V17v
T23 chain: GVPVWAFQAKDVENASAPV

[20] = target: T24, Presegetalin A1[14,32]V25A
T24 chain: GVPVWAFQAKDAENASAPV

[21] = target: T25, Presegetalin A1[14,32]V32A
T25 chain: GVPVWAFQAKDVENASAPA

[22] = target: T26, Presegetalin A1[14,32]W18A
T26 chain: GVPVAAFQAKDVENASAPV

Presegetalin B1[14,31] = target: T27, Presegetalin B1[14,31]
T27 chain: GVAWAFQAKDVENASAPV

Presegetalin D1[14,31] = target: T28, Presegetalin D1[14,31]
T28 chain: GLSFAFPAKDAENASSPV

[23] = target: T29, Presegetalin D1[14,31]P20Q
T29 chain: GLSFAFQAKDAENASSPV

Presegetalin F1[14,38] = target: T30, Presegetalin F1[14,38]
T30 chain: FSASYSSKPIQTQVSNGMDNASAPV

Presegetalin H1[14,31] = target: T31, Presegetalin H1[14,31]
T31 chain: GYRFSFQAKDAENASAPV

Presegetalin J1[14,36] = target: T32, Presegetalin J1[14,36]
T32 chain: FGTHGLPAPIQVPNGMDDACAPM

Presegetalin L1[14,32] = target: T33, Presegetalin L1[14,32]
T33 chain: GLPGWPFQAKDVENASAPV

B1: Saponaria vaccaria PCY1 (recombinant, N-terminal His6-tag, expressed in E. coli from pCB008) (protein)
chain: MATSGFSKPLHYPPVRRDETVVDDYFGVKVADPYRWLEDPNSEETKEFVDNQEKLANSVLEECELIDKFKQKIIDFVNFPRCGVPFRRANKYFHFYNSGLQAQNVFQMQDDLDGKPEVLYDPNLREGGRSGLSLYSVSEDAKYFAFGIHSGLTEWVTIKILKTEDRSYLPDTLEWVKFSPAIWTHDNKGFFYCPYPPLKEGEDHMTRSAVNQEARYHFLGTDQSEDILLWRDLENPAHHLKCQITDDGKYFLLYILDGCDDANKVYCLDLTKLPNGLESFRGREDSAPFMKLIDSFDASYTAIANDGSVFTFQTNKDAPRKKLVRVDLNNPSVWTDLVPESKKDLLESAHAVNENQLILRYLSDVKHVLEIRDLESGALQHRLPIDIGSVDGITARRRDSVVFFKFTSILTPGIVYQCDLKNDPTQLKIFRESVVPDFDRSEFEVKQVFVPSKDGTKIPIFIAARKGISLDGSHPCEMHGYGGFGINMMPTFSASRIVFLKHLGGVFCLANIRGGGEYGEEWHKAGFRDKKQNVFDDFISAAEYLISSGYTKARRVAIEGGSNGGLLVAACINQRPDLFGCAEANCGVMDMLRFHKFTLGYLWTGDYGCSDKEEEFKWLIKYSPIHNVRRPWEQPGNEETQYPATMILTADHDDRVVPLHSFKLLATMQHVLCTSLEDSPQKNPIIARIQRKAAHYGRATMTQIAEVADRYGFMAKALEAPWID
- CP (cyclic peptide product detected by LC/MS) [1]: +
- LP (linear peptide product detected by LC/MS) [1]: -
- cyclic peptide product (LC/MS, MS/MS) [1]: there was a small amount of cyclic peptide production from No. 43
- CP (cyclic peptide product detected by LC/MS) [2]: -
- LP (linear peptide product detected by LC/MS) [2]: -
- CP (cyclic peptide product detected by LC/MS) (Presegetalin A1[14,20]): -
- LP (linear peptide product detected by LC/MS) (Presegetalin A1[14,20]): -
- CP (cyclic peptide product detected by LC/MS) (Presegetalin A1[14,24]): -
- LP (linear peptide product detected by LC/MS) (Presegetalin A1[14,24]): +
- linear peptide formation (LC/MS, MS/MS) (Presegetalin A1[14,24]): showed linear peptide formation almost equivalent to the linear peptide formed from the WT substrate (No. 1)
- CP (cyclic peptide product detected by LC/MS) (Presegetalin A1[14,28]): -
- LP (linear peptide product detected by LC/MS) (Presegetalin A1[14,28]): +
- linear peptide formation (LC/MS, MS/MS) (Presegetalin A1[14,28]): showed linear peptide formation almost equivalent to the linear peptide formed from the WT substrate (No. 1)
- CP (cyclic peptide product detected by LC/MS) (Presegetalin A1[14,30]): -
- LP (linear peptide product detected by LC/MS) (Presegetalin A1[14,30]): +
- linear peptide formation (LC/MS, MS/MS) (Presegetalin A1[14,30]): showed linear peptide formation almost equivalent to the linear peptide formed from the WT substrate (No. 1)
- CP (cyclic peptide product detected by LC/MS) [3]: +
- LP (linear peptide product detected by LC/MS) [3]: +
- CP (cyclic peptide product detected by LC/MS) [4]: +
- LP (linear peptide product detected by LC/MS) [4]: +
- CP (cyclic peptide product detected by LC/MS) [5]: -
- LP (linear peptide product detected by LC/MS) [5]: -
- CP (cyclic peptide product detected by LC/MS) [6]: +
- LP (linear peptide product detected by LC/MS) [6]: +
- linear segetalin A production relative to WT substrate [6]: showed a relative increase in production of linear segetalin A
- CP (cyclic peptide product detected by LC/MS) [7]: +
- LP (linear peptide product detected by LC/MS) [7]: +
- linear segetalin A production relative to WT substrate [7]: showed a relative increase in production of linear segetalin A
- segetalin A production relative to WT substrate [7]: positions were found to be sensitive to substitution ... position 20, 21, 23, 24, 27, 28 and 31
- CP (cyclic peptide product detected by LC/MS) [8]: +
- LP (linear peptide product detected by LC/MS) [8]: +
- linear segetalin A production relative to WT substrate [8]: showed a relative increase in production of linear segetalin A
- CP (cyclic peptide product detected by LC/MS) [9]: +
- LP (linear peptide product detected by LC/MS) [9]: +
- linear segetalin A production relative to WT substrate [9]: showed a relative increase in production of linear segetalin A
- segetalin A production relative to WT substrate [9]: segetalin A production was found to be ≧42 times lower than the WT substrate
- CP (cyclic peptide product detected by LC/MS) [10]: +
- LP (linear peptide product detected by LC/MS) [10]: +
- linear segetalin A production relative to WT substrate [10]: a relative increase in production of linear segetalin A from all mutant substrates except with No. 13 and No. 14
- segetalin A production relative to WT substrate [10]: segetalin A production was found to be ≧42 times lower than the WT substrate
- CP (cyclic peptide product detected by LC/MS) [11]: +
- LP (linear peptide product detected by LC/MS) [11]: +
- linear segetalin A production relative to WT substrate [11]: showed a relative increase in production of linear segetalin A
- segetalin A production relative to WT substrate [11]: positions were found to be sensitive to substitution ... position 20, 21, 23, 24, 27, 28 and 31
- CP (cyclic peptide product detected by LC/MS) [12]: +
- LP (linear peptide product detected by LC/MS) [12]: +
- linear segetalin A production relative to WT substrate [12]: showed a relative increase in production of linear segetalin A
- segetalin A production relative to WT substrate [12]: positions were found to be sensitive to substitution ... position 20, 21, 23, 24, 27, 28 and 31
- CP (cyclic peptide product detected by LC/MS) [13]: +
- LP (linear peptide product detected by LC/MS) [13]: -
- CP (cyclic peptide product detected by LC/MS) [14]: +
- LP (linear peptide product detected by LC/MS) [14]: +
- linear segetalin A production relative to WT substrate [14]: showed a relative increase in production of linear segetalin A
- segetalin A production relative to WT substrate [14]: the P31A mutant (No. 24 in Table 3) was found to yield […]11 times less segetalin A than that produced from the WT substrate
- CP (cyclic peptide product detected by LC/MS) [15]: +
- LP (linear peptide product detected by LC/MS) [15]: +
- linear segetalin A production relative to WT substrate [15]: a relative increase in production of linear segetalin A from all mutant substrates except with No. 13 and No. 14
- segetalin A production relative to WT substrate [15]: positions were found to be sensitive to substitution ... position 20, 21, 23, 24, 27, 28 and 31
- CP (cyclic peptide product detected by LC/MS) [16]: +
- LP (linear peptide product detected by LC/MS) [16]: +
- linear segetalin A production relative to WT substrate [16]: showed a relative increase in production of linear segetalin A
- segetalin A production relative to WT substrate [16]: yielded a 30% increase in segetalin A production relative to wild type presegetalin A1[14,32]
- CP (cyclic peptide product detected by LC/MS) [17]: +
- LP (linear peptide product detected by LC/MS) [17]: +
- CP (cyclic peptide product detected by LC/MS) [18]: +
- LP (linear peptide product detected by LC/MS) [18]: +
- CP (cyclic peptide product detected by LC/MS) [19]: +
- LP (linear peptide product detected by LC/MS) [19]: -
- CP (cyclic peptide product detected by LC/MS) [20]: +
- LP (linear peptide product detected by LC/MS) [20]: +
- linear segetalin A production relative to WT substrate [20]: showed a relative increase in production of linear segetalin A
- segetalin A production relative to WT substrate [20]: substitutions at positions 25, 26 and 29 (No. 18, 19 and 22) yielded relatively higher amounts of segetalin A than that produced from WT substrate
- CP (cyclic peptide product detected by LC/MS) [21]: +
- LP (linear peptide product detected by LC/MS) [21]: +
- linear segetalin A production relative to WT substrate [21]: showed a relative increase in production of linear segetalin A
- CP (cyclic peptide product detected by LC/MS) [22]: +
- LP (linear peptide product detected by LC/MS) [22]: -
- CP (cyclic peptide product detected by LC/MS) (Presegetalin B1[14,31]): +
- LP (linear peptide product detected by LC/MS) (Presegetalin B1[14,31]): -
- CP (cyclic peptide product detected by LC/MS) (Presegetalin D1[14,31]): +
- LP (linear peptide product detected by LC/MS) (Presegetalin D1[14,31]): +
- CP (cyclic peptide product detected by LC/MS) [23]: +
- LP (linear peptide product detected by LC/MS) [23]: -
- cyclic peptide product (LC/MS) [23]: resulted in a 5 amino acid cyclic peptide product (cyclo(GLSFA); SEQ ID NO: 77), and the substituted glutamine was not part of the final cyclic peptide
- CP (cyclic peptide product detected by LC/MS) (Presegetalin F1[14,38]): +
- LP (linear peptide product detected by LC/MS) (Presegetalin F1[14,38]): -
- CP (cyclic peptide product detected by LC/MS) (Presegetalin H1[14,31]): +
- LP (linear peptide product detected by LC/MS) (Presegetalin H1[14,31]): -
- CP (cyclic peptide product detected by LC/MS) (Presegetalin J1[14,36]): +
- LP (linear peptide product detected by LC/MS) (Presegetalin J1[14,36]): -
- CP (cyclic peptide product detected by LC/MS) (Presegetalin L1[14,32]): +
- LP (linear peptide product detected by LC/MS) (Presegetalin L1[14,32]): -
